Test results taken from patent publication US20260125478A1 (VIELA BIO, published 2026).

Assays:
[1] = molecular target: T1, recombinant FcγRIIA-131H/H allotype (ELISA coat, generated at MedImmune) (human, UniProt P12318 34-217, limits assumed); experiment: ELISA on plate-coated FcγRIIA-131H/H (2 µg/ml), detection with goat anti-human Fc-HRP
T1 construct: also called human FcγRIIA; CD32A
T1 sequence (looked up): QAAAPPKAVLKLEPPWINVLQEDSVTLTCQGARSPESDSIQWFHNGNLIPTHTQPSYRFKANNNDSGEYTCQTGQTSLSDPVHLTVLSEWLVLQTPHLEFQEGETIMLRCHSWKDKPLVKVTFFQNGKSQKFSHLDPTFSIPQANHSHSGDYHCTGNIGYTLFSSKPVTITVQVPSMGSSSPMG
Protocol: (§1) Plates were washed five times with 200 μl of wash buffer (PBS containing 0.1% Tween 20), blocked with blocking buffer containing 5% milk in PBS for 1 hour at room temperature, and washed five additional times with wash buffer. Three-fold serial dilutions of the test antibody or control antibody (R347-Tm) were added to wells in duplicate. Plates were incubated for 2 hours at room temperature, and washed five times with wash buffer. Binding of the antibodies to the FcγRs was detected by adding 50 μl of goat anti-human Fc-HRP (Jackson ImmunoResearch Laboratories, PA) to the wells and incubating for 1 hour at room temperature, washing 10 times, and adding 50 μl TMB substrate (Pierce Biotechnology, MA). The color reaction was stopped with 50 μl 0.2M […] and the absorbance was measured using a spectrophotometer (Molecular Devices, CA) at […].

[2] = molecular target: T2, human FcγRIIA on primary human cells (neutrophils; sorted CD14+ monocytes), allotype not stated (human, UniProt P12318 34-317); experiment: flow cytometry, fluorescently labelled antibody on human neutrophils, in the presence of 10 mg/mL IVIG as competitor
T2 construct: whole, on cells; also called human FcγRIIA at the neutrophil surface; FcγRIIA-expressing neutrophils
T2 sequence (looked up): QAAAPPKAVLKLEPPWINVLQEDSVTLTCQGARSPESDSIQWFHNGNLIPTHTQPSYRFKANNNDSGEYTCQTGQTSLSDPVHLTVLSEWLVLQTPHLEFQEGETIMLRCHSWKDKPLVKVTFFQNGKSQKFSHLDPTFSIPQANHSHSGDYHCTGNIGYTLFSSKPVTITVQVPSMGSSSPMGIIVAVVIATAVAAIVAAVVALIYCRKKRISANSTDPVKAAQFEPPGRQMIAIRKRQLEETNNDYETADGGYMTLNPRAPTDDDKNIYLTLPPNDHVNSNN
Protocol: (§2) Human neutrophils were re-suspended in blocking buffer [phosphate-buffered saline (PBS) supplemented with 10% fetal bovine serum] and transferred to round-bottom 96-well culture plates (0.5×10^6 cells/well). […] After incubation, cells were washed with cold PBS and the mean fluorescence intensity (MFI) of cell-bound antibodies was assessed by flow cytometry using an LSRII (BD; Franklin Lakes, NJ). The EC₅₀ for binding was calculated using a non-linear fit equation in GraphPad Prism 6 software.

[3] = molecular target: T2, human FcγRIIA on primary human cells …; experiment: flow cytometry, fluorescently labelled antibody on human neutrophils, without IVIG
Protocol: as §2

[4] = molecular target: T3, cynomolgus CD32A version 3, 6xHis tagged (cynomolgus monkey); experiment: Biacore; IgG1-TM captured on a Protein G chip, CD32A as analyte, 1:1 Langmuir fit, average of two experiments
T3 construct: also called Cyno CD32A; cyno CD32A (version 3)
T3 chain: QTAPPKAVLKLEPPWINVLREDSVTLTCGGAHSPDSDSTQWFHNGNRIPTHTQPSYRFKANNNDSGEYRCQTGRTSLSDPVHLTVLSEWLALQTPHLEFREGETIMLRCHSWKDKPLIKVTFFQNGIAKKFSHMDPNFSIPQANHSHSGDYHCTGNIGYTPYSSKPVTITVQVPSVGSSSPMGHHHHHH

[5] = molecular target: T4, Human CD32A 131H extracellular domain, 6xHis_Flag tagged (human, UniProt P12318 34-217); experiment: as above
T4 construct: Used unlabelled as the analyte in Biacore; also called Hu CD32A_131His
T4 sequence: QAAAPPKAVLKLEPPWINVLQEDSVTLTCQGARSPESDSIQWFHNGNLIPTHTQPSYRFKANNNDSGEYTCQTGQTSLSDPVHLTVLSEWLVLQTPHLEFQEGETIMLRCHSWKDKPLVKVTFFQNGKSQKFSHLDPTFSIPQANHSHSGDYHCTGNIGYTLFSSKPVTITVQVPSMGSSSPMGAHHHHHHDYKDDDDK

[6] = molecular target: T5, Human CD32A 131R extracellular domain, 6xHis_Flag tagged (human, UniProt P12318 34-217); experiment: as above
T5 construct: also called Hu CD32A_131Arg; human CD32A_131 Arg
T5 chain: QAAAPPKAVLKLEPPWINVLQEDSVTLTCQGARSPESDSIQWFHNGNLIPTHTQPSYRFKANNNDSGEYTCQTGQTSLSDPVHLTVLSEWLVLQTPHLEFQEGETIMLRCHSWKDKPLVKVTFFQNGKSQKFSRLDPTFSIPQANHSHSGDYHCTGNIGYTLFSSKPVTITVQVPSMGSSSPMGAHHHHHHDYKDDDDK

[7] = molecular target: T6, recombinant human FcγRI (ELISA coat, generated at MedImmune) (human, UniProt P12314 16-292, limits assumed); experiment: ELISA on plate-coated FcγRI (2 µg/ml), detection with goat anti-human Fc-HRP
T6 construct: also called CD64
T6 sequence (P12314 16-292 limits assumed): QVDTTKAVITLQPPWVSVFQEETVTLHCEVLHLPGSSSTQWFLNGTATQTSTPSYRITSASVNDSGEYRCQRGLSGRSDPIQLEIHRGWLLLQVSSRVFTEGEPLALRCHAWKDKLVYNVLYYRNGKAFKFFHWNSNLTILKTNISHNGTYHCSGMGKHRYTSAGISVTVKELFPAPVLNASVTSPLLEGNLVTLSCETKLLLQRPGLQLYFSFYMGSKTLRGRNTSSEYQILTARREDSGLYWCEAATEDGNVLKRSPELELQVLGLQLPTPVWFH
Protocol: as §1

[8] = molecular target: T7, recombinant human FcγRIIIA-158F allotype (ELISA coat, generated at MedImmune) (human, UniProt P08637 17-208, limits assumed); experiment: ELISA on plate-coated FcγRIIIA-158F (2 µg/ml), detection with goat anti-human Fc-HRP
T7 construct: also called FcγRIII-158F allotype; CD16A 158F
T7 sequence (P08637 17-208 limits assumed): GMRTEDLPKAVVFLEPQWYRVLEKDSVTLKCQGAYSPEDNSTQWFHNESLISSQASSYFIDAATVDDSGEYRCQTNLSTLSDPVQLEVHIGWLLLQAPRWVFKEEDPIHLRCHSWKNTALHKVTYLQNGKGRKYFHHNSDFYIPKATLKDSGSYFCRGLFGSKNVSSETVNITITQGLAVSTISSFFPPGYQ
Protocol: as §1

[9] = molecular target: T2, human FcγRIIA on primary human cells …; experiment: flow cytometry, fluorescently labelled antibody on human neutrophils, 30 min at 4 °C, in the presence of 10 mg/mL IVIG as competitor
Protocol: as §2

[10] = molecular target: cynomolgus monkey FcγRIIA on blood cells (cynomolgus monkey); experiment: cell-based or functional assay

B1: 32LO0352 (MEDI9600) (antibody, human IgG1, V domains shown)
VH: QVQLVQSGAEVKKPGASVKVSCKASGYTFTNYGMNWVRQAPGQRLEWMGWLNTYTGESWYPDDFKGRVTITRDTSASTAYMELSSLRSEDTAVYYCARGDYGYDDPLDYWGQGTLVTVSS
VL: DIVMTQSPLSLPVTPGEPASISCRSSKSLLHTNQNTYLHWFLQKPGQSPQLLIYRMSVLASGVPDRFSGSGSGTDFTLKISRVEAEDVGVYYCMQHLEYPLTFGQGTKLEIK
notes: Fluorescently labelled in the neutrophil flow cytometry assay and Alexa 647 labelled for confocal microscopy; also called clone 32LO0352; CD32LO0352
For B1, the “EC50 (read off the curve)” value [1] was ~5 ng/mL, the EC50 [2] was 3.34 nM and the EC50 [3] was 0.03 nM. The Kd [4] was 31.3 nM, the koff [4] was 0.0904 s⁻¹ and the kon [4] was 2.88e+06 M⁻¹ s⁻¹. For the same binder, the Kd [5] was 0.13 nM, the koff [5] was 0.000337 s⁻¹ and the kon [5] was 2.6e+06 M⁻¹ s⁻¹. For the same binder, the Kd [6] was 0.15 nM, the koff [6] was 0.000735 s⁻¹ and the kon [6] was 4.98e+06 M⁻¹ s⁻¹. The binding result [7] was “no binding (tested: about 15000 ng/ml)”, the binding result [8] was “no binding (tested: about 15000 ng/ml)” and the EC50 [9] was 3.35 nM. For the same binder, the “IC50 of the loss of surface FcγRIIA (M.F.I of IV.3-Alexa 647) on cynomolgus monocytes, whole blood, 2 h at 37 °C” value [10] was 1.09 nM.
